From patent US20260001928A1 (CORTERIA PHARMACEUTICALS, priority 2022, published 2026)
*1 amine or outer side, *2 acyl side, *3 side chain or, on linkers, in order; H or OH if unused. Side-chain parts run from the residue outwards. [ ]: non-standard residue; d: D form. The star is where a group is joined. C16 diacid = O=C(O)CCCCCCCCCCCCCCC(=O)*; γGlu = O=C(O)[C@H](CCC(=O)[*:2])N[*:1]; Api = NC1(C(=O)O)CCNCC1; Aib = CC(C)(N)C(=O)O; Propionyl = CCC(=O)*; Butyryl = CCCC(=O)*

Legend:
[1] = biological target: human corticotropin-releasing factor 2a (CRF2a receptor) (human), Q13324; test: cell-based or functional assay
CRF1R receptor = biological target: T1, CRF1R receptor (UniProt P34998 24-415, limits assumed); test: cell-based or functional assay
T1 sequence (looked up): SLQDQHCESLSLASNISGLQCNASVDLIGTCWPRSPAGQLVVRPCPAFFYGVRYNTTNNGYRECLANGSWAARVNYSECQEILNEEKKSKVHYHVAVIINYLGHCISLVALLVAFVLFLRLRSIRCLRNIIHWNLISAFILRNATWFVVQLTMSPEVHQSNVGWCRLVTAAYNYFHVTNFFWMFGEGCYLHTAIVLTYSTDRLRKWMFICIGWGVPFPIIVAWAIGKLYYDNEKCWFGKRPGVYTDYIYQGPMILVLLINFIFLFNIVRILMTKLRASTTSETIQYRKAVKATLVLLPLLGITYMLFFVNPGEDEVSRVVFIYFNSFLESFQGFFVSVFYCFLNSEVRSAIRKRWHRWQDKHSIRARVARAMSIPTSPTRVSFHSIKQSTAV

human corticotropin-releasing factor 2a (CRF2a receptor) (human), Q13324, sequence (Q13324 20-411): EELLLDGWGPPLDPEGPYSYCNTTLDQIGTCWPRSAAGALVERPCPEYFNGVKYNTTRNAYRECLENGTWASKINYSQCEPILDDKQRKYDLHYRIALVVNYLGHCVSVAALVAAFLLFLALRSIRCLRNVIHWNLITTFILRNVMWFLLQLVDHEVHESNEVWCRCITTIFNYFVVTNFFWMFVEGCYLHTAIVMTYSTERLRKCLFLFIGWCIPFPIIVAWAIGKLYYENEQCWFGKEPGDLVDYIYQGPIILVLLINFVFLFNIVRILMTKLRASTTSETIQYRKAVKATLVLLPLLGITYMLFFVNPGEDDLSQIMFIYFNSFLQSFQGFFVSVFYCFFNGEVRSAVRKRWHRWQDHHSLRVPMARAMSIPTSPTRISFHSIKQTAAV

B1: SEQ ID NO 78 (peptide)
peptide: Propionyl-VLSLD[dV]PIKLK([γGlu-C16 diacid])KILLEQEKQKKQREQAETN[Aib]QILAQV-NH2
SMILES: CCC(=O)N[C@H](C(=O)N[C@@H](CC(C)C)C(=O)N[C@@H](CO)C(=O)N[C@@H](CC(C)C)C(=O)N[C@@H](CC(=O)O)C(=O)N[C@@H](C(=O)N1CCC[C@H]1C(=O)N[C@H](C(=O)N[C@@H](CCCCN)C(=O)N[C@@H](CC(C)C)C(=O)N[C@@H](CCCCNC(=O)CC[C@H](NC(=O)CCCCCCCCCCCCCCC(=O)O)C(=O)O)C(=O)N[C@@H](CCCCN)C(=O)N[C@H](C(=O)N[C@@H](CC(C)C)C(=O)N[C@@H](CC(C)C)C(=O)N[C@@H](CCC(=O)O)C(=O)N[C@@H](CCC(N)=O)C(=O)N[C@@H](CCC(=O)O)C(=O)N[C@@H](CCCCN)C(=O)N[C@@H](CCC(N)=O)C(=O)N[C@@H](CCCCN)C(=O)N[C@@H](CCCCN)C(=O)N[C@@H](CCC(N)=O)C(=O)N[C@@H](CCCNC(=N)N)C(=O)N[C@@H](CCC(=O)O)C(=O)N[C@@H](CCC(N)=O)C(=O)N[C@@H](C)C(=O)N[C@@H](CCC(=O)O)C(=O)N[C@H](C(=O)N[C@@H](CC(N)=O)C(=O)NC(C)(C)C(=O)N[C@@H](CCC(N)=O)C(=O)N[C@H](C(=O)N[C@@H](CC(C)C)C(=O)N[C@@H](C)C(=O)N[C@@H](CCC(N)=O)C(=O)N[C@H](C(N)=O)C(C)C)[C@@H](C)CC)[C@@H](C)O)[C@@H](C)CC)[C@@H](C)CC)C(C)C)C(C)C
[1]
  EC50 [nM] (cAMP): 0.73 nM
CRF1R receptor
  Emax (% I): 7%

B2: SEQ ID NO 57 (peptide)
peptide: Ac-IVLSLD[dV]PIKLK([γGlu-C16 diacid])KILLEQEKQKKQREQAETN[Api]QILAQV-NH2
SMILES: CC[C@H](C)[C@H](NC(C)=O)C(=O)N[C@H](C(=O)N[C@@H](CC(C)C)C(=O)N[C@@H](CO)C(=O)N[C@@H](CC(C)C)C(=O)N[C@@H](CC(=O)O)C(=O)N[C@@H](C(=O)N1CCC[C@H]1C(=O)N[C@H](C(=O)N[C@@H](CCCCN)C(=O)N[C@@H](CC(C)C)C(=O)N[C@@H](CCCCNC(=O)CC[C@H](NC(=O)CCCCCCCCCCCCCCC(=O)O)C(=O)O)C(=O)N[C@@H](CCCCN)C(=O)N[C@H](C(=O)N[C@@H](CC(C)C)C(=O)N[C@@H](CC(C)C)C(=O)N[C@@H](CCC(=O)O)C(=O)N[C@@H](CCC(N)=O)C(=O)N[C@@H](CCC(=O)O)C(=O)N[C@@H](CCCCN)C(=O)N[C@@H](CCC(N)=O)C(=O)N[C@@H](CCCCN)C(=O)N[C@@H](CCCCN)C(=O)N[C@@H](CCC(N)=O)C(=O)N[C@@H](CCCNC(=N)N)C(=O)N[C@@H](CCC(=O)O)C(=O)N[C@@H](CCC(N)=O)C(=O)N[C@@H](C)C(=O)N[C@@H](CCC(=O)O)C(=O)N[C@H](C(=O)N[C@@H](CC(N)=O)C(=O)NC1(C(=O)N[C@@H](CCC(N)=O)C(=O)N[C@H](C(=O)N[C@@H](CC(C)C)C(=O)N[C@@H](C)C(=O)N[C@@H](CCC(N)=O)C(=O)N[C@H](C(N)=O)C(C)C)[C@@H](C)CC)CCNCC1)[C@@H](C)O)[C@@H](C)CC)[C@@H](C)CC)C(C)C)C(C)C
[1]
  EC50 [nM] (cAMP): 0.39 nM
CRF1R receptor
  Emax (% I): 24%

B3: SEQ ID NO 47 (peptide)
peptide: Ac-IVLSLD[dV]PIKLK([γGlu-C16 diacid])KILLEQEKQKKQREQAETNAQILAQV-NH2
SMILES: CC[C@H](C)[C@H](NC(C)=O)C(=O)N[C@H](C(=O)N[C@@H](CC(C)C)C(=O)N[C@@H](CO)C(=O)N[C@@H](CC(C)C)C(=O)N[C@@H](CC(=O)O)C(=O)N[C@@H](C(=O)N1CCC[C@H]1C(=O)N[C@H](C(=O)N[C@@H](CCCCN)C(=O)N[C@@H](CC(C)C)C(=O)N[C@@H](CCCCNC(=O)CC[C@H](NC(=O)CCCCCCCCCCCCCCC(=O)O)C(=O)O)C(=O)N[C@@H](CCCCN)C(=O)N[C@H](C(=O)N[C@@H](CC(C)C)C(=O)N[C@@H](CC(C)C)C(=O)N[C@@H](CCC(=O)O)C(=O)N[C@@H](CCC(N)=O)C(=O)N[C@@H](CCC(=O)O)C(=O)N[C@@H](CCCCN)C(=O)N[C@@H](CCC(N)=O)C(=O)N[C@@H](CCCCN)C(=O)N[C@@H](CCCCN)C(=O)N[C@@H](CCC(N)=O)C(=O)N[C@@H](CCCNC(=N)N)C(=O)N[C@@H](CCC(=O)O)C(=O)N[C@@H](CCC(N)=O)C(=O)N[C@@H](C)C(=O)N[C@@H](CCC(=O)O)C(=O)N[C@H](C(=O)N[C@@H](CC(N)=O)C(=O)N[C@@H](C)C(=O)N[C@@H](CCC(N)=O)C(=O)N[C@H](C(=O)N[C@@H](CC(C)C)C(=O)N[C@@H](C)C(=O)N[C@@H](CCC(N)=O)C(=O)N[C@H](C(N)=O)C(C)C)[C@@H](C)CC)[C@@H](C)O)[C@@H](C)CC)[C@@H](C)CC)C(C)C)C(C)C
[1]
  EC50 [nM] (cAMP): 0.09 nM
CRF1R receptor
  Emax (% I): 10%

B4: SEQ ID NO 56 (peptide)
peptide: Ac-IVLSLD[dV]PIKLK([γGlu-C16 diacid])KILLEQEKQKKQREQAETNEQILAQV-NH2
SMILES: CC[C@H](C)[C@H](NC(C)=O)C(=O)N[C@H](C(=O)N[C@@H](CC(C)C)C(=O)N[C@@H](CO)C(=O)N[C@@H](CC(C)C)C(=O)N[C@@H](CC(=O)O)C(=O)N[C@@H](C(=O)N1CCC[C@H]1C(=O)N[C@H](C(=O)N[C@@H](CCCCN)C(=O)N[C@@H](CC(C)C)C(=O)N[C@@H](CCCCNC(=O)CC[C@H](NC(=O)CCCCCCCCCCCCCCC(=O)O)C(=O)O)C(=O)N[C@@H](CCCCN)C(=O)N[C@H](C(=O)N[C@@H](CC(C)C)C(=O)N[C@@H](CC(C)C)C(=O)N[C@@H](CCC(=O)O)C(=O)N[C@@H](CCC(N)=O)C(=O)N[C@@H](CCC(=O)O)C(=O)N[C@@H](CCCCN)C(=O)N[C@@H](CCC(N)=O)C(=O)N[C@@H](CCCCN)C(=O)N[C@@H](CCCCN)C(=O)N[C@@H](CCC(N)=O)C(=O)N[C@@H](CCCNC(=N)N)C(=O)N[C@@H](CCC(=O)O)C(=O)N[C@@H](CCC(N)=O)C(=O)N[C@@H](C)C(=O)N[C@@H](CCC(=O)O)C(=O)N[C@H](C(=O)N[C@@H](CC(N)=O)C(=O)N[C@@H](CCC(=O)O)C(=O)N[C@@H](CCC(N)=O)C(=O)N[C@H](C(=O)N[C@@H](CC(C)C)C(=O)N[C@@H](C)C(=O)N[C@@H](CCC(N)=O)C(=O)N[C@H](C(N)=O)C(C)C)[C@@H](C)CC)[C@@H](C)O)[C@@H](C)CC)[C@@H](C)CC)C(C)C)C(C)C
[1]
  EC50 [nM] (cAMP): 0.3 nM
CRF1R receptor
  Emax (% I): 3%

B5: SEQ ID NO 21 (peptide)
peptide: Ac-IVLSLD[dV]PIKLK([γGlu-C16 diacid])KILLKQERQKKQREQAEKN[Aib]QILEQV-NH2
SMILES: CC[C@H](C)[C@H](NC(C)=O)C(=O)N[C@H](C(=O)N[C@@H](CC(C)C)C(=O)N[C@@H](CO)C(=O)N[C@@H](CC(C)C)C(=O)N[C@@H](CC(=O)O)C(=O)N[C@@H](C(=O)N1CCC[C@H]1C(=O)N[C@H](C(=O)N[C@@H](CCCCN)C(=O)N[C@@H](CC(C)C)C(=O)N[C@@H](CCCCNC(=O)CC[C@H](NC(=O)CCCCCCCCCCCCCCC(=O)O)C(=O)O)C(=O)N[C@@H](CCCCN)C(=O)N[C@H](C(=O)N[C@@H](CC(C)C)C(=O)N[C@@H](CC(C)C)C(=O)N[C@@H](CCCCN)C(=O)N[C@@H](CCC(N)=O)C(=O)N[C@@H](CCC(=O)O)C(=O)N[C@@H](CCCNC(=N)N)C(=O)N[C@@H](CCC(N)=O)C(=O)N[C@@H](CCCCN)C(=O)N[C@@H](CCCCN)C(=O)N[C@@H](CCC(N)=O)C(=O)N[C@@H](CCCNC(=N)N)C(=O)N[C@@H](CCC(=O)O)C(=O)N[C@@H](CCC(N)=O)C(=O)N[C@@H](C)C(=O)N[C@@H](CCC(=O)O)C(=O)N[C@@H](CCCCN)C(=O)N[C@@H](CC(N)=O)C(=O)NC(C)(C)C(=O)N[C@@H](CCC(N)=O)C(=O)N[C@H](C(=O)N[C@@H](CC(C)C)C(=O)N[C@@H](CCC(=O)O)C(=O)N[C@@H](CCC(N)=O)C(=O)N[C@H](C(N)=O)C(C)C)[C@@H](C)CC)[C@@H](C)CC)[C@@H](C)CC)C(C)C)C(C)C
[1]
  EC50 [nM] (cAMP): 0.34 nM
CRF1R receptor
  Emax (% I): 5%

B6: SEQ ID NO 79 (peptide)
peptide: Butyryl-VLSLD[dV]PIKLK([γGlu-C16 diacid])KILLEQEKQKKQREQAETN[Aib]QILAQV-NH2
SMILES: CCCC(=O)N[C@H](C(=O)N[C@@H](CC(C)C)C(=O)N[C@@H](CO)C(=O)N[C@@H](CC(C)C)C(=O)N[C@@H](CC(=O)O)C(=O)N[C@@H](C(=O)N1CCC[C@H]1C(=O)N[C@H](C(=O)N[C@@H](CCCCN)C(=O)N[C@@H](CC(C)C)C(=O)N[C@@H](CCCCNC(=O)CC[C@H](NC(=O)CCCCCCCCCCCCCCC(=O)O)C(=O)O)C(=O)N[C@@H](CCCCN)C(=O)N[C@H](C(=O)N[C@@H](CC(C)C)C(=O)N[C@@H](CC(C)C)C(=O)N[C@@H](CCC(=O)O)C(=O)N[C@@H](CCC(N)=O)C(=O)N[C@@H](CCC(=O)O)C(=O)N[C@@H](CCCCN)C(=O)N[C@@H](CCC(N)=O)C(=O)N[C@@H](CCCCN)C(=O)N[C@@H](CCCCN)C(=O)N[C@@H](CCC(N)=O)C(=O)N[C@@H](CCCNC(=N)N)C(=O)N[C@@H](CCC(=O)O)C(=O)N[C@@H](CCC(N)=O)C(=O)N[C@@H](C)C(=O)N[C@@H](CCC(=O)O)C(=O)N[C@H](C(=O)N[C@@H](CC(N)=O)C(=O)NC(C)(C)C(=O)N[C@@H](CCC(N)=O)C(=O)N[C@H](C(=O)N[C@@H](CC(C)C)C(=O)N[C@@H](C)C(=O)N[C@@H](CCC(N)=O)C(=O)N[C@H](C(N)=O)C(C)C)[C@@H](C)CC)[C@@H](C)O)[C@@H](C)CC)[C@@H](C)CC)C(C)C)C(C)C
[1]
  EC50 [nM] (cAMP): 0.38 nM
CRF1R receptor
  Emax (% I): 10%
